# pKd: −log10 of the molar value.
# Target: GST-MreC from Helicobacter pylori (residues L37-N248), wild type (H. pylori) (UniProt B5Z916)
# Experiment: ITC; iTC200, 20 °C; PBP2 (3 μL of 160.4 μM) titrated into the cell with GST-tagged MreC (25 μM)
substance,measurement,value
"PBP2 from Helicobacter pylori (residues L38-L588, lacking the TM helix), His6-tagged (domain or fragment)",pKd,6.40

# From article PMC5626683
